Source: patent US20190367631A1 (Regeneron, published 2019)

B1: H1H27739P-N297Q (antibody, human IgG1, V domains shown)
VH: EVQLVESGGGLVQPGGSLRLSCTASGFTFSSYAMSWVRQAPGKGLEWVSAISGTGSSTYFTDSVKGRFAISRDNSKNTLYLQMNSLRAEDTAVYYCAKDGEWLSTVTLFDYWGQGTLVTVSS
VL: EIVMTQSPATLSVSPGERATLSCRASQSVSSNLAWYQQKPGQAPRLLIYGASTRATGIPARFSGSGSGTDFTLTISSLQSEDFALYYCQQYFIWPPHPTFGPGTKVDIKR
notes: human IgG1 Fc with N297Q (EU)
B2: H1H27739P-N297Q-LP1 (antibody, human IgG1, V domains shown)
VH: EVQLVESGGGLVQPGGSLRLSCTASGFTFSSYAMSWVRQAPGKGLEWVSAISGTGSSTYFTDSVKGRFAISRDNSKNTLYLQMNSLRAEDTAVYYCAKDGEWLSTVTLFDYWGQGTLVTVSS
VL: EIVMTQSPATLSVSPGERATLSCRASQSVSSNLAWYQQKPGQAPRLLIYGASTRATGIPARFSGSGSGTDFTLTISSLQSEDFALYYCQQYFIWPPHPTFGPGTKVDIKR
modifications: LXR agonist linker-payload LP1 clicked to azido-PEG3-amine on Q295 and Q297 (EU) of the heavy chain constant region
notes: antibody-drug conjugate; human IgG1 Fc with N297Q (EU); also called H1H27739P-LP1
B3: H1H27761P-N297Q (antibody, human IgG1, V domains shown)
VH: EVQLVESGGDLVQPGGSLRLSCSASGFTFNIYAMSWVRQAPGKGLEWVSGISGSGGSTYYADSVKGRFTISRDNSKNTLYFQMNSLRVEDTAVYYCAKKISSSSYYYYAMDVWGQGTTVTVSS
VL: not shown
notes: human IgG1 Fc with N297Q (EU); also called H1H27761P2-N297Q
B4: H1H27761P-N297Q-LP1 (antibody, human IgG1, V domains shown)
VH: EVQLVESGGDLVQPGGSLRLSCSASGFTFNIYAMSWVRQAPGKGLEWVSGISGSGGSTYYADSVKGRFTISRDNSKNTLYFQMNSLRVEDTAVYYCAKKISSSSYYYYAMDVWGQGTTVTVSS
VL: not shown
modifications: LXR agonist linker-payload LP1 clicked to azido-PEG3-amine on Q295 and Q297 (EU) of the heavy chain constant region
notes: antibody-drug conjugate; human IgG1 Fc with N297Q (EU)
B5: H1H27734P-N297Q (antibody, human IgG1, V domains shown)
VH: EVQLVESRGGLVQPGGSLRLSCAASGFTFSSYAMSWVRQAPGKGLEWVSAISGSGGSTFYADSVKGRFTISRDNSKNTVYLQMNSLRAEDTAVYYCAKALVLRFLEWLGDYWGQGTLVTVSS
VL: DIQMTQSPSTLSASVGDRVTITCRASQSISSWLAWFQQKPGKAPKLLIYKASSLESGVPSRFSGSGSGTEFTLTISSLQPDDFATYYCQQYKSYWTFGQGTKVEIKR
notes: human IgG1 Fc with N297Q (EU)
B6: H1H27734P-N297Q-LP1 (antibody, human IgG1, V domains shown)
VH: EVQLVESRGGLVQPGGSLRLSCAASGFTFSSYAMSWVRQAPGKGLEWVSAISGSGGSTFYADSVKGRFTISRDNSKNTVYLQMNSLRAEDTAVYYCAKALVLRFLEWLGDYWGQGTLVTVSS
VL: DIQMTQSPSTLSASVGDRVTITCRASQSISSWLAWFQQKPGKAPKLLIYKASSLESGVPSRFSGSGSGTEFTLTISSLQPDDFATYYCQQYKSYWTFGQGTKVEIKR
modifications: LXR agonist linker-payload LP1 clicked to azido-PEG3-amine on Q295 and Q297 (EU) of the heavy chain constant region
notes: antibody-drug conjugate; human IgG1 Fc with N297Q (EU); also called H1H27734P-LP1
B7: H1H27729P-N297Q (antibody, human IgG1, V domains shown)
VH: QVQLVESGGGLVKPGGSLRLSCAASGFIFSDYYMSWIRQAPGKGLEWVSYISSSGTTIYGDSVKGRFTMSRDNAKNSLYLQMNSLRAEDTAVYYCARNYALFDYWGQGTLVTVSS
VL: DIQMTQSPSSLSASVGDRVTITCQASQDISKYLNWYQQKPGKAPKLLIYYTSNLETGVPSRFSGSGSGTDFTFTISSLQPEDIATYYCHQSDYLPFTFGPGTKVDIKR
notes: human IgG1 Fc with N297Q (EU)
B8: H1H27729P-N297Q-LP1 (antibody, human IgG1, V domains shown)
VH: QVQLVESGGGLVKPGGSLRLSCAASGFIFSDYYMSWIRQAPGKGLEWVSYISSSGTTIYGDSVKGRFTMSRDNAKNSLYLQMNSLRAEDTAVYYCARNYALFDYWGQGTLVTVSS
VL: DIQMTQSPSSLSASVGDRVTITCQASQDISKYLNWYQQKPGKAPKLLIYYTSNLETGVPSRFSGSGSGTDFTFTISSLQPEDIATYYCHQSDYLPFTFGPGTKVDIKR
modifications: LXR agonist linker-payload LP1 clicked to azido-PEG3-amine on Q295 and Q297 (EU) of the heavy chain constant region
notes: antibody-drug conjugate; human IgG1 Fc with N297Q (EU); also called H1H27729P-LP1
B9: H1H27762P-N297Q (antibody, human IgG1, V domains shown)
VH: QVQLVQSGAEVKKPGSSVKVSCKASGGTFSRYDISWVRQAPGQGLEWMGGIIPIFGTSNYAQKFQGRVTITTDESTSTVYMELSSLRSEDTAVYYCARGGRYGWFDPWGQGTLVTVSS
VL: not shown
notes: human IgG1 Fc with N297Q (EU); also called H1H27762P2-N297Q
B10: H1H27762P-N297Q-LP1 (antibody, human IgG1, V domains shown)
VH: QVQLVQSGAEVKKPGSSVKVSCKASGGTFSRYDISWVRQAPGQGLEWMGGIIPIFGTSNYAQKFQGRVTITTDESTSTVYMELSSLRSEDTAVYYCARGGRYGWFDPWGQGTLVTVSS
VL: not shown
modifications: LXR agonist linker-payload LP1 clicked to azido-PEG3-amine on Q295 and Q297 (EU) of the heavy chain constant region
notes: antibody-drug conjugate; human IgG1 Fc with N297Q (EU); also called H1H27762P2-LP1
B11: H1xH29283P2 (antibody, V domains shown)
VH: QVQLVQSGTEVKKPGSSVKVSCKASGGTFSRYTFSWVRQAPGQGLEWMGGIIPIFGTTNYAQKFQGRVTITTDESTSTVYMELSSLRSEDTAVYYCTRGGRYGWFDPWGQGTLVTVSS
VL: not shown
notes: the prefix H1xH is not explained; captured by anti-human Fc

The binders below were run against T1, human MSR1 extracellular domain expressed with a N-terminal nonahistidine tag (His9-hMSR1); R&D Systems, Cat … (human, UniProt P21757 77-451) (assay: SPR Biacore T200, 25 C, antibody captured by anti-human Fc, His9-hMSR1 injected;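 note: running buffer HBS-ET pH 7.4, rates from sensorgrams fitted to a 1:1 model including mass transport limitation, KD and half-life derived from the kinetic constants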).
T1 construct: extracellular domain; Bought reagent; also called His-hMSR1; 9xHis-hMSR1
T1 sequence: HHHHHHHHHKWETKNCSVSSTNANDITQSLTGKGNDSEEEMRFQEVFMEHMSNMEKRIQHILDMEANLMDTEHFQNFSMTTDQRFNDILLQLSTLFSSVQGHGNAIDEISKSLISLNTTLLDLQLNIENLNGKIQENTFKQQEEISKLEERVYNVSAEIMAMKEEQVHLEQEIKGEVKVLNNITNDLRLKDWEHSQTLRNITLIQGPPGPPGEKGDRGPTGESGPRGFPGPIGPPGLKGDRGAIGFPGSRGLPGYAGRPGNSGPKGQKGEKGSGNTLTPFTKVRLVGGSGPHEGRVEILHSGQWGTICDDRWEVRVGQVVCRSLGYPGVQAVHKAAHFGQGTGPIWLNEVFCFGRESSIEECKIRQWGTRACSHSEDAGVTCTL
Protocol: All binding studies were performed in 10 mM HEPES, 300 mM NaCl, 3 mM EDTA, and 0.05% v/v Surfactant Tween-20, pH 7.4 (HBS-ET) running buffer at 25° C.
The association rate (kₐ) and dissociation rate (kd) were determined by fitting the real-time binding sensorgrams to a 1:1 binding model with mass transport limitation using Scrubber 2.0c curve-fitting software. Binding dissociation equilibrium constant (KD) and dissociative half-life (t½) were calculated from the kinetic rates as:

First: B1
Second: B2
The Kd of the first is 1.7-fold lower: 4.68 nM for the first, 8.14 nM for the second.

First: B3
Second: B4
The Kd of the first is 3.3-fold lower: 0.609 nM for the first, 2.02 nM for the second. The first binds more tightly here.

B5 and B6 are within 1.5-fold of each other in Kd: 7.72 nM for the first, 6.49 nM for the second.

First: B7
Second: B8
The Kd of the first is 1.5-fold lower: 8.67 nM for the first, 13.1 nM for the second.

B9 and B10 are within 1.5-fold of each other in Kd: 1.38 nM for the first, 1.29 nM for the second.

With B11 the Kd was 13.4 nM.

B1 and B2 are within 1.5-fold of each other in koff: 0.000555 s⁻¹ for the first, 0.000722 s⁻¹ for the second.

B3 and B4 are within 1.5-fold of each other in koff: 0.000362 s⁻¹ for the first, 0.000511 s⁻¹ for the second.

B5 and B6 are within 1.5-fold of each other in koff: 0.000596 s⁻¹ for the first, 0.000449 s⁻¹ for the second.

B7 and B8 are within 1.5-fold of each other in koff: 0.000906 s⁻¹ for the first, 0.000718 s⁻¹ for the second.

B9 and B10 are within 1.5-fold of each other in koff: 0.00056 s⁻¹ for the first, 0.000623 s⁻¹ for the second.

B11 was tested, and the koff was 0.00185 s⁻¹.

B1 and B2 are within 1.5-fold of each other in kon: 119000 M⁻¹ s⁻¹ for the first, 88800 M⁻¹ s⁻¹ for the second.

First: B3
Second: B4
The kon of the first is 2.4-fold higher: 595000 M⁻¹ s⁻¹ for the first, 253000 M⁻¹ s⁻¹ for the second.

B5 and B6 are within 1.5-fold of each other in kon: 77200 M⁻¹ s⁻¹ for the first, 69300 M⁻¹ s⁻¹ for the second.

First: B7
Second: B8
The kon of the first is 1.9-fold higher: 105000 M⁻¹ s⁻¹ for the first, 54700 M⁻¹ s⁻¹ for the second.

B9 and B10 are within 1.5-fold of each other in kon: 405000 M⁻¹ s⁻¹ for the first, 483000 M⁻¹ s⁻¹ for the second.

With B11 the kon was 139000 M⁻¹ s⁻¹.

B1 and B2 are within 1.5-fold of each other in t½: 20.8 min for the first, 16 min for the second.

B3 and B4 are within 1.5-fold of each other in t½: 31.9 min for the first, 22.6 min for the second.

B5 and B6 are within 1.5-fold of each other in t½: 19.4 min for the first, 25.7 min for the second.

B7 and B8 are within 1.5-fold of each other in t½: 12.8 min for the first, 16.1 min for the second.

B9 and B10 are within 1.5-fold of each other in t½: 20.6 min for the first, 18.5 min for the second.

Work on B11 yielded a t½ of 6.2 min.
